The record followed here is paper PMC9936548, “Repertoire of Computationally Designed Peroxygenases for Enantiodivergent C–H Oxyfunctionalization Reactions” (Journal of the American Chemical Society, 2023).

Changes are numbered by the printed parent chain. Names and notes keep the numbering of the source.

Substrate in this data set: CCc1ccccc1
Briefly: purified protein. Type of data set: biochemical, Cyclocybe aegerita.

[1] abbreviates: 2 mM H2O2, 100 mM phosphate pH 7.0, design d2.
[2] abbreviates: 2 mM H2O2, 100 mM phosphate pH 7.0, design d4.

Usually Km stands for the substrate concentration at which the rate is half of its maximum. In general, kcat refers to the maximal rate divided by the concentration of active sites. Broadly, the kcat/Km is the second-order rate constant that governs catalysis at low substrate concentration.

B1: PaDa-I (evolved AaeUPO) (Cyclocybe aegerita; A359P/F242L/F354L/G284I/I291V/L110F/T235L/V100A/V118I/V287I) (protein)
chain: EPGLPPGPLENSSAKLVNDEAHPWKPLRPGDIRGPCPGLNTLASHGYLPRNGVATPAQIINAVQEGFNFDNQAAIFATYAAHLVDGNLITDLLSIGRKTRLTGPDPPPPASVGGLNEHGTFEGDASMTRGDAFFGNNHDFNETLFEQLVDYSNRFGGGKYNLTVAGELRFKRIQDSIATNPNFSFVDFRFFLAYGETTLPANLFVDGRRDDGQLDMDAARSFFQFSRMPDDFFRAPSPRSITGIEVVVQAHPMQPGRNVGKINSYTVDPTSSDFSTPCLMYEKFVNITVKSLYPNPTVQLRKALNTNLDFLFQGVPAGCTQVFPYGRD
notes: laboratory-evolved secretion mutant PaDa-I; mature, no tag; evolved signal peptide (F12Y/A14V/R15G/A21D in leader); heme and structural Mg; expressed in Pichia pastoris, purified to homogeneity
As for B1, under setting [1], the Km came out at 560 ± 200 µM, the kcat was 570 ± 119 s⁻¹ and the kcat/Km came out at 1.02e+06 M⁻¹ s⁻¹.

B2: PaDa-I (evolved AaeUPO) (Cyclocybe aegerita; A120I/F112L/F242L/F354L/G284N/I291V/L110F/V100A/V118I/V287T) (protein)
chain: B1 chain with F69L, A77I, L192T, I241N, I244T, P316A
notes: as for B1
For B2, under setting [2], the Km worked out at 560 ± 200 µM, the kcat is 570 ± 119 s⁻¹ and the kcat/Km worked out at 1.02e+06 M⁻¹ s⁻¹.
